Legend:
[1] = target: T1, cynomolgus monkey SIRPα on CHO cells (cynomolgus monkey, UniProt A0A2K5VYQ9 31-507); experiment: flow cytometry, CHO transfectants, anti-human IgG
T1 construct: whole, on cells; also called Cyno SIRPα CHO
T1 sequence: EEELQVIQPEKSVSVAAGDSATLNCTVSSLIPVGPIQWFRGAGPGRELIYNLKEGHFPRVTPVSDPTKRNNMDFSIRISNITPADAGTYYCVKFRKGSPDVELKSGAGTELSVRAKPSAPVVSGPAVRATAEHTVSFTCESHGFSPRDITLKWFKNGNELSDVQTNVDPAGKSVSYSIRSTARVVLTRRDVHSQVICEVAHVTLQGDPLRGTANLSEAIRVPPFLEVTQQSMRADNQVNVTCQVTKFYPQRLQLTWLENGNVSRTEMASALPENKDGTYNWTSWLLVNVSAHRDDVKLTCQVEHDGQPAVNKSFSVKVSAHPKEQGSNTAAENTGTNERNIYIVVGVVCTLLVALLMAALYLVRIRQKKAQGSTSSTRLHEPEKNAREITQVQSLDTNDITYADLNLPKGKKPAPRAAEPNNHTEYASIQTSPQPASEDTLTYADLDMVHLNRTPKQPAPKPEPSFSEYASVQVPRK
Method: (§1) Selected antibodies were tested for binding to stably transfected human SIRPγ, SIRPαV1, or SIRPβ1 (co-transfected with DAP12) Chinese hamster ovary (CHO) cells via flow cytometry. A titration of select antibodies was added to the cells and detected using a fluorescently labelled secondary anti-rat IgG antibody or anti-human IgG antibody. Graphs depict the median fluorescence intensity (MFI) at each concentration. FIGS. 5A and 5G show the binding curves of select antibodies to human SIRPγ, cynomolgus monkey SIRPγ, human SIRPα, cynomolgus monkey SIRPα, human SIRPβ1, or cynomolgus monkey SIRPβl-expressing CHO cells detected using an anti-rat IgG antibody. FIGS. 5B-5F and 5H-5L show the binding curves of select antibodies to human SIRPγ, cynomolgus monkey SIRPγ, human SIRPα, cynomolgus monkey SIRPα, human SIRPβ1, or cynomolgus monkey SIRPβ1-expressing CHO cells detected using an anti-human IgG antibody. […] For select antibodies, each myc-tagged SIRPγ scFv antibody as crude PPE was incubated with each of the SIRP-expressing cell lines stated above along with the parental CHO-K1 cell line. […] Fold change value <2.0 is considered a non-binder.

[2] = target: T2, human SIRPβ1 on CHO cells (co-transfected with DAP12) (human, UniProt O00241 30-398); experiment: flow cytometry, CHO transfectants, anti-human IgG
T2 construct: whole, on cells; co-transfected with DAP12; also called Human SIRPβ1 CHO
Method: as §1

[3] = target: T3, Cynomolgus Monkey SIRPγ (plate-coated extracellular domain); experiment: ELISA, coated SIRP ECD (2 µg/mL), anti-human IgG, luminescence
T3 construct: also called Cyno SIRPγ
T3 extracellular domain: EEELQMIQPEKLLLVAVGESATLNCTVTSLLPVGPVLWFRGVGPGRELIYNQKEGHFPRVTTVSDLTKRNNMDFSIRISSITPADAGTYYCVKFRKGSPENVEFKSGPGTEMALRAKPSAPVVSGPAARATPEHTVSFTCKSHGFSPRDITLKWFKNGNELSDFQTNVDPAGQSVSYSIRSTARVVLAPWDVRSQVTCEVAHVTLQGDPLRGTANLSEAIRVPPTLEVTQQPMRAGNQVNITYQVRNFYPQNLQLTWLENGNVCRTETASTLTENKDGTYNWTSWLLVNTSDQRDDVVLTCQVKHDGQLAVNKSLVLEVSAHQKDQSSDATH
Method: (§2) Selected hybridoma supernatants of Example 1 were tested for binding to human SIRPγ, cynomolgus monkey SIRPγ, human SIRPα V1, cynomolgus monkey SIRPα, human SIRPβ1, and cynomolgus monkey SIRPβ1 by enzyme-linked immunosorbent assay (ELISA). Briefly, 2 μg/mL of the extracellular domain of SIRP protein was coated onto high protein-binding plates and blocked. Undiluted supernatants were added to coated plates. The antibodies were detected by an anti-rat antibody and a chemiluminescent substrate. […] The data depict the relative luminescence units read by a plate-reader capable of detecting chemiluminescence.
(§3) FIGS. 2A-2G show binding curves of SIRPγ antibodies and human Fc isotype controls to human SIRPγ, cynomolgus monkey SIRPγ, human SIRPα V1, human SIRPα V2, and human SIRPβ1 by ELISA. […] Isotype control 2 was an unrelated human IgG1 antibody with irrelevant CDRs with no modifications in the Fc region. DNA was transiently transfected into Expi293F cells for 5 days. Antibodies were purified by Protein A from cell supernatants and analyzed in a titration via ELISA as previously described in FIG. 1 using an anti-human IgG antibody as the detection antibody.

[4] = target: T4, extracellular binding domain of human SIRPγ (plate-coated) (human, UniProt Q9P1W8 29-360); experiment: as above
T4 construct: also called hSIRPγ
Method: as §2, §3

T4 sequence (Q9P1W8 29-360 limits assumed): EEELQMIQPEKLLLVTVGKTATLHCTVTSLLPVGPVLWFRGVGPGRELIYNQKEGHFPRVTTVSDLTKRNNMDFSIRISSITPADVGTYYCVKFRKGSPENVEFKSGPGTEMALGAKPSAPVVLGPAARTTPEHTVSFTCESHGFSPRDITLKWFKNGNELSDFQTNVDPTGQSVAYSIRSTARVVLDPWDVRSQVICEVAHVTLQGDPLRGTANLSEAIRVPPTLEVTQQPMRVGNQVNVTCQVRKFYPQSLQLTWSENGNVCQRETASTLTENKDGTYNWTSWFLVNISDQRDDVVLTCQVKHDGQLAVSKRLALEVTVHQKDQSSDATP
T2 sequence (O00241 30-398): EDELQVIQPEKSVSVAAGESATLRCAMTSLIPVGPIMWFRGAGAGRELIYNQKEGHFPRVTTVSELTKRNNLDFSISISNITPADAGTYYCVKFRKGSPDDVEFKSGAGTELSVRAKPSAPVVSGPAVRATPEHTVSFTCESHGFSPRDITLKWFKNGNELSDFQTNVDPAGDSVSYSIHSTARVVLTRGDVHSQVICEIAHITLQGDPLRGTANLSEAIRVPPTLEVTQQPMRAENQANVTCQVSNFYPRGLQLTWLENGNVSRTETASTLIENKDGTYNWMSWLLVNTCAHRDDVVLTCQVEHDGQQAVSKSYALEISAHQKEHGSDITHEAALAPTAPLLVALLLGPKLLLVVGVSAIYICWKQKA

Binder	binding result [1]	binding result [2]	EC50 (read off the curve) [3] [µg/mL]	EC50 (read off the curve) [4] [µg/mL]	binding result [3]
Antibody 74 (antibody, V domains shown) VH: QVQLVQSGAEVKKPGASVKVSCKASGGTFSNYGFSWVRQAPGQGLEWMGWMSPSSGNTGYAQKFQGRVTMTRDTSTSTVYMELSSLRSEDTAVYYCARERSGSYFDYWGQGTLVTVSS VL: EIVMTQSPATLSVSPGERATLSCRASQSVSSYLAWYQQKPGQAPRLLIYGTSTRATGIPARFSGSGSGTEFTLTISSLQSEDFAVYYCQQYGSLPFTFGQGTRLEIK	no binding (tested: about 20 µg/mL)	no binding (tested: about 20 µg/mL)	~0.7	~0.4	
Antibody 76 (antibody, V domains shown) VH: QVQLVQSGAEVKKPGSSVKVSCKASGGTFSKIAVSWVRQAPGQGLEWMGLINPNSGGTDYAQKFQGRVTITADESTSTAYMELSSLRSEDTAVYYCAKDFRGGDYYYYGMDVWGQGTTVTVSS VL: EIVMTQSPATLSVSPGERATLSCRASQSVSSNLAWYQQKPGQAPRLLIYGASTRATGIPARFSGSGSGTEFTLTISSLQSEDFAVYYCQQYNTYPITFGQGTKVEIK	no binding (tested: about 20 µg/mL)	no binding (tested: about 20 µg/mL)	~0.1	~0.09	
Antibody 77 (antibody, V domains shown) VH: QVQLVQSGAEVKKPGASVKVSCKASGYTFTSYGISWVRQAPGQGLEWMGWISAYNGNTNYAQKFQGRVTMTRDTSTSTVYMELSSLRSEDTAVYYCARGTYYDYIWGSYRYSWFDYWGQGTLVTVSS VL: not shown	no binding (tested: about 20 µg/mL)	no binding (tested: about 20 µg/mL)	~0.04	~0.02	
Antibody 81 (antibody, V domains shown) VH: QVQLVQSGAEVKKPGASVKVSCKASGYTFTSYDINWVRQAPGQGLEWMGWISGYNGNTNYAQKFQGRVTMTRDTSTSTVYMELSSLRSEDTAVYYCARSFDWLLLLDYWGQGTLVTVSS VL: DIQMTQSPSSLSASVGDRVTITCRASQSISSWLAWYQQKPGKAPKLLIYDATTLESGVPSRFSGSGSGTDFTLTISSLQPEDFATYYCQQYDSYPWTFGQGTKLEIK	no binding (tested: about 20 µg/mL)	no binding (tested: about 20 µg/mL)	~0.04	~0.02	
Antibody 78 (antibody, V domains shown) VH: QVQLVQSGAEVKKPGASVKVSCKASGYTFTTYGISWVRQAPGQGLEWMGWMDPNSGSTGYAQKFQGRVTMTRDTSTSTVYMELSSLRSEDTAVYYCARGRGNSYYYYYMDVWGKGTTVTVSS VL: DIQMTQSPSSLSASVGDRVTITCRASQRIGSYLNWYQQKPGKAPKLLIYGASNLQSGVPSRFSGSGSGTDFTLTISSLQPEDFATYYCQQANSFPFTFGPGTKVDIK	no binding (tested: about 20 µg/mL)	no binding (tested: about 20 µg/mL)			binds
Antibody 55 (antibody, V domains shown) VH: EVQLLESGGGLVQPGGSLRLSCAASGFTFSNSDMNWVRQAPGKGLEWVSYISSSGNTIYYADSVKGRFTISRDNSKNTLYLQMNSLRAEDTAVYYCARSNWNYPLDYYYMDVWGKGTTVTVSS VL: DIVMTQSPLSLPVTPGEPASISCRSSQSLLHSNGYNYLDWYLQKPGQSPQLLIYAASSLQSGVPDRFSGSGSGTDFTLKISRVEAEDVGVYYCMQGTHWPPTFGQGTKVEIK	no binding (tested: about 20 µg/mL)	no binding (tested: about 20 µg/mL)		~0.7	
Antibody 56 (antibody, V domains shown) VH: QVQLVQSGAEVKKPGASVKVSCKASGYTFTSYYMHWVRQAPGQGLEWMGWVDPNNGDTGYAQKFQGRVTMTRDTSTSTVYMELSSLRSEDTAVYYCARDNWGSLDVWGKGTTVTVSS VL: DIVMTQSPLSLPVTPGEPASISCRSSQSLLHSNGYNYLDWYLQKPGQSPQLLIYAASTLQSGVPDRFSGSGSGTDFTLKISRVEAEDVGVYYCMQGLQTLYSFGQGTKLEIK		no binding (tested: about 20 µg/mL)	~0.4	~0.7	
Antibody 58 (antibody, V domains shown) VH: QVQLVQSGAEVKKPGASVKVSCKASGYTFTAYYMHWVRQAPGQGLEWMGIINPSGGSTSYAQKFQGRVTMTRDTSTSTVYMELSSLRSEDTAVYYCARDSGWYAPGYYYGMDVWGQGTTVTVSS VL: DIQMTQSPSSLSASVGDRVTITCRASESISHWLAWYQQKPGKAPKLLIYGASTLQSGVPSRFSGSGSGTDFTLTISSLQPEDFATYYCQQSYTPPLTFGGGTKVEIK	no binding (tested: about 20 µg/mL)	no binding (tested: about 20 µg/mL)	~0.1	~0.09	
Antibody 61 (antibody, V domains shown) VH: QVQLVQSGAEVKKPGASVKVSCKASGYTFTSHDINWVRQAPGQGLEWMGISNPSGGSTYYAQKFQGRVTMTRDTSTSTVYMELSSLRSEDTAVYYCASSRRYWNGAFDYWGQGTLVTVSS VL: not shown					binds
Antibody 62 (antibody, V domains shown) VH: QVQLVQSGAEVKKPGASVKVSCKASGGTFSNYDINWVRQAPGQGLEWMGWISAYNGNTNYAQKLQGRVTMTRDTSTSTVYMELSSLRSEDTAVYYCAAEAYGDYSLDPWGQGTLVTVSS VL: DIQMTQSPSSLSASVGDRVTITCQASQGISSYLNWYQQKPGKAPKLLIYAASSLQNGVPSRFSGSGSGTDFTLTISSLQPEDFATYYCQQSYSTPITFGQGTRLEIK	no binding (tested: about 20 µg/mL)	no binding (tested: about 20 µg/mL)			binds
Antibody 66 (antibody, V domains shown) VH: QVQLVQSGAEVKKPGASVKVSCKASGGTFSSYAISWVRQAPGQGLEWMGIINPSSSSTGYAQKFQGRVTMTRDTSTSTVYMELSSLRSEDTAVYYCARAGYYDSSGYYYSPYYGMDVWGQGTTVTVSS VL: EIVMTQSPATLSVSPGERATLSCRASQSISGSYLAWYQQKPGQAPRLLIYGASTRATGIPARFSGSGSGTEFTLTISSLQSEDFAVYYCQQYGSFPFTFGPGTKVDIK	no binding (tested: about 20 µg/mL)	no binding (tested: about 20 µg/mL)	~0.1		
Antibody 67 (antibody, V domains shown) VH: QVQLVQSGAEVKKPGASVKVSCKASGYTFTNFDINWVRQAPGQGLEWMGWISAYNGHTNYAQNLQGRVTMTRDTSTSTVYMELSSLRSEDTAVYYCAQEAAAGYFDYWGQGTLVTVSS VL: DIQMTQSPSSLSASVGDRVTITCRASQDIRNDLAWYQQKPGKAPKLLIYDASNLETGVPSRFSGSGSGTDFTLTISSLQPEDFATYYCQQSYGTPYTFGQGTKLEIK	no binding (tested: about 20 µg/mL)	no binding (tested: about 20 µg/mL)			binds
